Reference: the supplement of paper PMC9170038

Test system: MS2 coat protein
Test: apparent KD of MS2 coat protein; designed switch direction (-1 OFF switch, 1 ON switch): -1; higher = weaker reporter binding
How it was run: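 Three titration conditions were used: no input, 200 uM small-molecule ligand, and an oligonucleotide input. In each, SNAP-549-labelled MS2 coat protein was raised from 0.7 or 1.5 nM, doubling, to 3 µM over designed RNA switches transcribed on Illumina chips by stalled E. coli RNA polymerase. Curve fits of normalised cluster fluorescence gave values whose per-design median over clusters is the apparent KD.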

[1] = input ligand: microRNA oligo, concentration not stated
[2] = Eterna round: R95, input ligand: microRNA oligo, concentration not stated
[3] = Eterna round: R95, input ligand: FMN 200 uM
[4] = Eterna round: R95, input ligand: none

Sequence | apparent KD of MS2 coat protein (input ligand: FMN 200 uM) [µM] | apparent KD of MS2 coat protein [1] [µM] | apparent KD of MS2 coat protein (input ligand: none) [µM] | apparent KD of MS2 coat protein [2] [µM] | apparent KD of MS2 coat protein [3] [µM] | apparent KD of MS2 coat protein [4] [µM]
CUGCUCCGUGUAGGAUAUGCAUAUUCCCAUUAUGCAGAAGGACAUGAGGAUCACCCAUGUAUGUUAUUAUCAUGUGUUACAUGC [Design 9] (Eterna round: R96, puzzle: Exclusion NG 1) | 0.203 | 0.0249 | 0.0332 | – | – | –
GCUGGACGAGGAUAUACAUGAGGAUCACCCAUGUGAUCAGCAGUCCUCGGACUGCAAUGUAGAAGGUGUCCAGC [E3/1-B2] (Eterna round: R97, puzzle: Exclusion 3) | 0.302 | – | 2.32 | – | – | –
UGAUAGAGCCUAGGAUAUUCGGAUCUACUACAAGGAGAAGGAGGUAGUCGGUGACGAACAUGAGGAUCACCCAUGUCGUCCUUC [Eternabot solution 37] (Eterna round: R96, puzzle: Exclusion NG 1) | – | 0.0617 | – | – | – | –
CUCAUGCCUGAGGAUAUGCUGUACAAAAGUACUGCAGAAGGUGGAACAUGAGGAUCACCCAUGUGGCGAAAGCC [Omei Ex G4] (Eterna round: R97, puzzle: Exclusion 6) | 0.253 | – | 0.0661 | – | – | –
GUCGUGAGACAGGAUAUCCAAUCUAAACACGAGGGAGAAGGGUCUACAUGAGGAUCACCCAUGUGGUCUCAAAA [Aonondiin] (puzzle: Exclusion 6) | – | – | – | 0.0172 | – | –
GCUUGUAGAGGAUAUACAAGGGCCUUAGCGGAAAACUCCGCACAUGAGGAUCACCCAUGUAGAAGGCUACCACC [Isrianqu] (puzzle: Exclusion 2) | – | – | – | 0.0151 | – | –
AAGAAACAUGAGGAUCACCCAUGUGAGGAUAUGAGUAAGAAAAGAAAAGAAAGAAGAUUCAGAAGGCACAAAGG [salish99-ex1_r3_057] (puzzle: Exclusion 1) | – | – | – | 0.0581 | 0.0947 | 0.0732
AGCCAAGCAGGAUAUGCCCGUAAUAACAUGAGGAUCACCCAUGUGACCGAUUUAUGUUCUGCAGAAGGGCUUGGAA [LRO-Excl5-12-mod of Erxesoan mod by Eli Fisker] (Eterna round: R97, puzzle: Exclusion 5) | 0.0913 | – | 0.0248 | – | – | –
GAAAACGAAGAGGAUAUAUGAUAUCAAAGCUUCAUAGAAGGCUUCACAUGAGGAUCACCCAUGUGAUCUUCAAU [Mat - Exclusion 6 - JL Mod - D23] (Eterna round: R97, puzzle: Exclusion 6) | 0.244 | – | 0.0416 | – | – | –
ACAGCAUAGUUAGGAUAUUGCCGACACUGUGUGUUCCUACACAUGAGGAUCACCCAUGUGAAGCGCGAGAAGGAACUAACUGAA [Eternabot solution 8] (Eterna round: R96, puzzle: Exclusion NG 2) | 0.43 | 0.179 | 0.348 | – | – | –
AAUGCCAGUGUCAGGAUAUCCGGAGGGAAACCUCCGGAGAAGGGACAUGAGGAUCACCCAUGUAUGUAACCUGC [AK-MS2ROC-r4-Bmoexclusion4-7] (Eterna round: R97, puzzle: Brourd's mod of Exclusion 4) | 0.0352 | – | 0.0236 | – | – | –
AGAGUGCUGCGAGGAUAUACAUGAGGAUCACCCAUGUUUUCGUGUGAGGCUUUGCCUCACACGAAGUAGAAGGCGCAGUACUCA [Mat - Exclusion NG 2 - Mod of JL - D32] (Eterna round: R96, puzzle: Exclusion NG 2) | 0.00728 | 0.00946 | 0.0109 | – | – | –
UAAGUUUACCGAGGAUAUGGUUUUUCCUUUUUACCAGAAGGCGGACUCAACAUGAGGAUCACCCAUGUAUAAAGGGUAUUUGGU [JR_ExcNG1_Sub045] (Eterna round: R96, puzzle: Exclusion NG 1) | 0.0578 | 0.0496 | 0.054 | – | – | –
AAUUAUUAUUGAGGAUAUCGUAGUGAAACACUACGAGAAGGCGGUAUAAACAUGAGGAUCACCCAUGUGAGCCUGAUGCUUAUG [Ex NG1 #44] (Eterna round: R96, puzzle: Exclusion NG 1) | – | 0.0206 | – | – | – | –
GGUGCGUUUGUGAGGAUAUGCUGGUCCUUGGAUCAGCAGAAGGCACAUGAGGAUCACCCAUGUGGUGUCGGUCC [salish99_Bmod_Ex4_038] (puzzle: Brourd's mod of Exclusion 4) | – | – | – | 0.252 | – | –
AAUACAAGCUAUUGAUCCCACAUGAGGAUCACCCAUGUACCUGGCCGUGAGACCAGGUUUACAAUAGCUCGUCUUAU [Sensor-V1 #48] (Eterna round: R97, puzzle: Sensor, turn-off variant 1) | 0.107 | – | 0.0938 | – | – | –
AUAAAUAAGGAGGAUAUCGUAUCGGAAACGAUACGAGAAGGCCUAACAUGAGGAUCACCCAUGUUCCUUAAAUA [Mat - Exclusion 6 - Eli Mod - D62] (puzzle: Exclusion 6) | – | – | – | 0.0241 | 0.0409 | 0.0216

Sequence | apparent KD of MS2 coat protein (input ligand: FMN 200 uM) [µM] | apparent KD of MS2 coat protein [1] [µM] | apparent KD of MS2 coat protein (input ligand: none) [µM] | apparent KD of MS2 coat protein [2] [µM] | apparent KD of MS2 coat protein [3] [µM] | apparent KD of MS2 coat protein [4] [µM]
AUUAUGUUAGGAUAUGCUUAUGGUGGAUAGUCCAAUGUGGUGCAGAAGGGACAUGAGGAUCACCCAUGUACUGA [EX4 #29] (Eterna round: R97, puzzle: Exclusion 4) | 0.0705 | – | 0.0586 | – | – | –
UAAAUUAUAGUAAGGAUAUCAGUCGCGAAAGUGGCUGAGAAGGUACAUGAGGAUCACCCAUGUGAAAUAAGAAU [Mod of Zala 17 - Jieux - Brourd's Mod of Exclusion 4] (Eterna round: R97, puzzle: Brourd's mod of Exclusion 4) | 0.0257 | – | 0.02 | – | – | –
UCGUUCCGUGUAGGAUAUUGGUCUCCCUCGGGCCGAGAAGGACAUGAGGAUCACCCAUGUAUGUUAUUAUCGCGCGUGGCGCAU [Design 90] (Eterna round: R96, puzzle: Exclusion NG 1) | 0.0295 | 0.0178 | 0.0241 | – | – | –
ACAAGCUUUUUGUUCGUCUUAUACACUCCUAAUAAGAAAACAUGAGGAUCACCCAUGUAAGAAAUAAGAACUCAUGU [Sesor Array 1 - Jieux - Sensor v3, turn-off variant 2] (puzzle: Sensor v3, turn-off variant 2) | – | – | – | 0.303 | 0.225 | 0.213
UUAAUUAAUAAUUAAGAUCAUUACAUGAGGAUCACCCAUGUCGAGGAUAUCAGCUCGAUUAGAGCUGAGAAGGCGACAAAUUAU [ExNG3/13-B1] (Eterna round: R96, puzzle: Exclusion NG 3) | 1.06 | 0.644 | 0.579 | – | – | –
CACCGUUACAGAGGAUAUGACACAUGAGGAUCACCCAUGUAAUAAAUGAGAAUUUCGAAUGUACCUCAGAAGGCUGGAACCGGC [Ostricism 78 - Jieux - Exclusion NG 2] (Eterna round: R96, puzzle: Exclusion NG 2) | 0.0612 | 0.0315 | 0.0387 | – | – | –
CAUGAUUGGGAAGGAUAUUGACCUAGUUAGCGCCGAGAAGGUCCCUGUCACAUGAGGAUCACCCAUGUGAGUCUGGUGUUCGAG [Ex NG1 #95] (Eterna round: R96, puzzle: Exclusion NG 1) | 0.0297 | 0.0177 | 0.0216 | – | – | –
GCGCACCUACCAAAAGGUAGGUCCACAUGAGGAUCACCCAUGUAGGAUAUCGAUUGCUUUGCAGUCGAGAAGGACAUGAUGCGC [JL ENG3 3.80 Mod 10] (Eterna round: R96, puzzle: Exclusion NG 3) | 0.0523 | 0.0181 | 0.0213 | – | – | –
GGCAAUAUGUAGGAUAUCGUAUUGGAAACAAUACGAGAAGGGCAAACAUGAGGAUCACCCAUGUUCCUUAAGCC [Mat - Exclusion 6 - Eli Mod - D68] (puzzle: Exclusion 6) | – | – | – | 0.0176 | 0.0186 | 0.0166
UUCUUACAUGAGGAUCACCCAUGUCAGGAUAUCUCCUCACUGCGCUUGCGCAGUGGAUAGAGAAGGGACAGGCU [JL ViennaUCT Aner mod 3] (puzzle: Exclusion 1) | – | – | – | 0.0431 | – | –
AGUGUGAGGCAGGAUAUGCAAUUUGUAAGUAAUGCAGAAGGGUCUACAUGAGGAUCACCCAUGUGUGCGGUUGA [Ex6 #11] (Eterna round: R97, puzzle: Exclusion 6) | 0.447 | – | 0.246 | – | – | –
AAAUACAAGCAAAGAUCUUACAUGAGGAUCACCCAUGUGCUCGUCUUAUAAAGUACUAUCACGAAAGUGAUAGUACA [Sensor 3, v1 - 29] (puzzle: Sensor v3, turn-off variant 1) | – | – | – | 0.108 | 0.0195 | 0.0191
UAGGUACAUGAGGAUCACCCAUGUGAGGAUAUAGAGGAAGAUUGCGAGAGGGAGAGGACUAGAAGGCACAGUGG [JR_Exclu1_Sub035] (puzzle: Exclusion 1) | – | – | – | 0.0281 | 0.037 | 0.0399
UGUUGUUACGCAGGAUAUGAGGAUCACCCAUAGAAGGAUAACGAAAGUGAAGGUCUGAGGAUUACCCAGAAGGGCGGGUUAACA [pwkr exNG2 2xF5 2xFMN.2] (Eterna round: R96, puzzle: Exclusion NG 2) | 0.294 | 0.0742 | 0.092 | – | – | –
CUACUCGUUGUGAGGAUAUCGUUUUCGUCACGGAUCGAGAAGGCACAUGAGGAUCACCCAUGUUUGAUGUGGAU [JR_BMOE4_Sub091] (Eterna round: R96, puzzle: Brourd's mod of Exclusion 4) | 0.089 | 0.0299 | 0.0381 | – | – | –
GGUUGACAUGAGGAUCACCCAUGUGAGGAUAUGCGAGAGAAAAAAGUGAGGAAGAAAUGCAGAAGGCGCUGUCG [salish99-ex1_r3_009] (puzzle: Exclusion 1) | – | – | – | 0.0815 | 0.127 | 0.433
